{
  "source": "paper PMC9459030",
  "about": "(Journal of Ginseng Research, 2021)",
  "molecular_target": "T1, 14-3-3 ζ protein (UniProt P63104 1-245)",
  "T1 sequence (looked up)": "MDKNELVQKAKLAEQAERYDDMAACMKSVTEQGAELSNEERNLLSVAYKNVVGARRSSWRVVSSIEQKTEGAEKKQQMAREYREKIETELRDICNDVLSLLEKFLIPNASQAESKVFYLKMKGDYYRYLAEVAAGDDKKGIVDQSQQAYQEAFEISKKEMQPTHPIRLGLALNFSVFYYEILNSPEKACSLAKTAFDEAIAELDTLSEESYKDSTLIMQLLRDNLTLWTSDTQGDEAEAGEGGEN",
  "assay": "BLI",
  "note": "Where no end group is shown, it is not given here. [ ]: non-standard residue; d: D form. pS = N[C@@H](COP(=O)(O)O)C(=O)O",
  "data": [
    {"binder": "GRPRTT[pS]FAE", "note": "[p-Ser9 GSK 3β polypeptide (Gly3-pSer9-Glu12)]", "values": [
      {"measurement": "Kd", "result": 46.8, "unit": "µM"},
      {"measurement": "koff", "result": 0.0185, "unit": "s⁻¹"},
      {"measurement": "kon", "result": 579, "unit": "M⁻¹ s⁻¹"}
    ]}
  ]
}
